Positions count from the first letter of the chain named. Names may count otherwise.
T1: human CD73 on CD73-expressing human tumor cells (MDA-MB-231, NCI-H292) (human, UniProt P21589 27-549)
T1 construct: whole, on cells; The cell line of each result is named under assay or readout; also called cell surface CD73; surface CD73
T1 sequence (looked up): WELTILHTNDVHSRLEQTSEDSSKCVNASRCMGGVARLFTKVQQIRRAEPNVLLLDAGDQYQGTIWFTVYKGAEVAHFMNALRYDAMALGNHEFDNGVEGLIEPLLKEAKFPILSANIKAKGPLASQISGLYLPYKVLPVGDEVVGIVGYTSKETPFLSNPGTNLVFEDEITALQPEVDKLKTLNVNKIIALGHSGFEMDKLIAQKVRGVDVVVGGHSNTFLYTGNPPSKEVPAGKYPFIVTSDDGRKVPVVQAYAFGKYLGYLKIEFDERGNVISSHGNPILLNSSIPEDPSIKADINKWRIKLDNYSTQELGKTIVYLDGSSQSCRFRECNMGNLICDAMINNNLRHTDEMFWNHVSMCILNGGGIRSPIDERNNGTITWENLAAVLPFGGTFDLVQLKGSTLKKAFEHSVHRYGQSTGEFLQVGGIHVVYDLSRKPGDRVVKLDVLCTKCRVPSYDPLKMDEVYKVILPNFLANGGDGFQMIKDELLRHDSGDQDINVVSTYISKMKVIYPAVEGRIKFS

T2: mouse CD73 on mouse mammary carcinoma 4T1 cells (mouse, UniProt Q61503 29-551)
T2 construct: whole, on cells
T2 sequence (looked up): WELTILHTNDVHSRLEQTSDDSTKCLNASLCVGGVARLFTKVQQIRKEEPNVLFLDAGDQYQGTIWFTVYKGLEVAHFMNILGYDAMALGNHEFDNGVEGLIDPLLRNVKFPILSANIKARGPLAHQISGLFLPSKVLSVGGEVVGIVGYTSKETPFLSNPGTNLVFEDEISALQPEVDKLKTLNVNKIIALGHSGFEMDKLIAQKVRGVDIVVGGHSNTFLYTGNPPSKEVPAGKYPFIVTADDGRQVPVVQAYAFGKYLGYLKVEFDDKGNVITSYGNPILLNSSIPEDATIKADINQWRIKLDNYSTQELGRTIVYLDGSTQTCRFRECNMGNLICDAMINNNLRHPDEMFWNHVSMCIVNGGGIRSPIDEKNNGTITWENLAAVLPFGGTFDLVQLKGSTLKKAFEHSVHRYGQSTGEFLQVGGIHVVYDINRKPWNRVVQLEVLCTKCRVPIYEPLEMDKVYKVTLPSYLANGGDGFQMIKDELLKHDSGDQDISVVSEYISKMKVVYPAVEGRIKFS

B1: N2-tmtIgG1 (antibody)
heavy: QVQLQQWGAGLLKPSETLSLTCAVYGGSFSGYYWSWIRQPPGKGLEWIGEINHSGSTNYNPSLKSRVTISVDTSKNQFSLKLSSVTAADTAVYYCARGRYDFWSGYYAYFDYWGQGTLVTVSSASTKGPSVFPLAPSSSTSGGTAALGCLVKDYFPEPVTVSWNSGALTSGVHTFPAVLQSSGLYSLSSVVTVPSSSLGTQTYICNVNHKPSNTKVDKRVEPKSCDKTHTCPPCPAPEFEGGPSVFLFPPKPKDTLMISRTPEVTCVVVDVSHEDPEVKFNWYVDGVEVHNAKTKPREEQYNSTYRVVSVLTVLHQDWLNGKEYKCKVSNKALPASIEKTISKAKGQPREPQVYTLPPSREEMTKNQVSLTCLVKGFYPSDIAVEWESNGQPENNYKTTPPVLDSDGSFFLYSKLTVDKSRWQQGNVFSCSVMHEALHNHYTQKSLSLSPGK
light: LNFMLTQPHSVSESPGKTVTISCTCSGGRIANNYVQWYQQRPGTSPTTVIYEDNLRPSGVPDRFSGSIDRASNSASLTISDLRTEDEAHYYCQSYDSNDGVAFGGGTKLTVLGQPKAAPSVTLFPPSSEELQANKATLVCLISDFYPGAVTVAWKADSSPVKAGVETTTPSKQSNNKYAASSYLSLTPEQWKSHRSYSCQVTHGGSTVEKTVALTECS
notes: Heavy chain assembled from the VH entry and the constant region entry named tmtIgG1; also called lead N2; N2 clone, tmtIgG1 isotype
B2: N2-wtIgG2 (antibody)
heavy: QVQLQQWGAGLLKPSETLSLTCAVYGGSFSGYYWSWIRQPPGKGLEWIGEINHSGSTNYNPSLKSRVTISVDTSKNQFSLKLSSVTAADTAVYYCARGRYDFWSGYYAYFDYWGQGTLVTVSSASTKGPSVFPLAPCSRSTSESTAALGCLVKDYFPEPVTVSWNSGALTSGVHTFPAVLQSSGLYSLSSVVTVPSSNFGTQTYTCNVDHKPSNTKVDKTVERKCCVECPPCPAPPVAGPSVFLFPPKPKDTLMISRTPEVTCVVVDVSHEDPEVQFNWYVDGVEVHNAKTKPREEQFNSTFRVVSVLTVVHQDWLNGKEYKCKVSNKGLPAPIEKTISKTKGQPREPQVYTLPPSREEMTKNQVSLTCLVKGFYPSDIAVEWESNGQPENNYKTTPPMLDSDGSFFLYSKLTVDKSRWQQGNVFSCSVMHEALHNHYTQKSLSLSPGK
light: B1 light
notes: also called N2 clone, wtIgG2 isotype
B3: N2-mtIgG2 (antibody)
heavy: B2 heavy with C225S
light: B1 light
notes: also called N2 clone, mtIgG2 isotype; C219S mutant IgG2
B4: N4#6-3-P (antibody, human IgG2, lambda, V domains shown)
VH: QVQLVQSGAEVKKSGSSVKVSCKASGGTFSSYAISWVRQAPGQGLEWMGGIIPIFGTANYAQKFQGRVTITADESTSIAYMELSSLRSEDTAVYYCASDGAVAAYDAFLIWGQGTMVTVSS
VL: QAVLTQPSSVSGAPGQRVTISCTGTSSNIGLGYDIHWYQQLPGTAPKLLMYRFDRRPSGVPDRFSGSKSGTSASLTITGLQVEDEADYYCQSYDSGQRGWVFGGGTKLTVLG
notes: Full-length human IgG2 antibody; also called antibody variant N4#6-3-P; N4 top variant
B5: N4#6-4-P (antibody, human IgG2, lambda, V domains shown)
VH: B4 VH with G50M
VL: B4 VL with L31A, Y33F, D54S
notes: Full-length human IgG2 antibody; also called antibody variant N4#6-4-P; N4 top variant
B6: N1#9-PH (antibody, human IgG2, lambda, V domains shown)
VH: EVQLVESGGGLVQPGRSLRLSCAASGFTFDDYAMHWVRLAPGKGLEWVSGISWNSGSIGYADSVRGRFTISRDNAKNSLYLQMNSLRAEDTALYYCAKDMGWSLLKTNYYGMDVWGQGTTVTVSS
VL: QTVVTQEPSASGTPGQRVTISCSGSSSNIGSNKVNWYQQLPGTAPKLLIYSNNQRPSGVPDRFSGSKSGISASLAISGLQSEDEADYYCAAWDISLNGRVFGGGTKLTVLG
notes: Full-length human IgG2 antibody; also called antibody variant N1#9-PH; N1 top variant
B7: N4-tmtIgG1 (antibody)
heavy: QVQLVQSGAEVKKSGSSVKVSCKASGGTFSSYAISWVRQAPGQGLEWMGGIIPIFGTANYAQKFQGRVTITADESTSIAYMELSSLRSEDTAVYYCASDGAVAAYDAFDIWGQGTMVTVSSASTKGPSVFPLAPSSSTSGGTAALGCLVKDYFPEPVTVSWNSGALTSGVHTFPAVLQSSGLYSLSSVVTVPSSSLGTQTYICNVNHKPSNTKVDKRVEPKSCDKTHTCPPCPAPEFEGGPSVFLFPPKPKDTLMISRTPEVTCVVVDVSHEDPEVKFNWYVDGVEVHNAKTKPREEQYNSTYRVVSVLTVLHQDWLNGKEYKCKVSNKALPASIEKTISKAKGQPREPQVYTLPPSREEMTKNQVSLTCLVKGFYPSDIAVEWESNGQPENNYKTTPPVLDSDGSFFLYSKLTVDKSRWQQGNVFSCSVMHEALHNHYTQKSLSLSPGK
light: QAVLTQPSSVSGAPGQRVTISCTGTSSNIGAGYDIHWYQQLPGTAPKLLMYRFTRRPSGVPDRFSGSKSGTSASLTITGLQVEDEADYYCQSYDSGLRGWVFGGGTKLAVLGQPKAAPSVTLFPPSSEELQANKATLVCLISDFYPGAVTVAWKADSSPVKAGVETTTPSKQSNSKYAASSYLSLTPEQWKSHRSYSCQVTHEGSTVEKTVALTECS
notes: Heavy chain assembled from the VH entry and the constant region entry named tmtIgG1; also called lead N4; N4 clone, tmtIgG1 isotype
B8: N4 with wtIgG2 isotype (antibody)
heavy: QVQLVQSGAEVKKSGSSVKVSCKASGGTFSSYAISWVRQAPGQGLEWMGGIIPIFGTANYAQKFQGRVTITADESTSIAYMELSSLRSEDTAVYYCASDGAVAAYDAFDIWGQGTMVTVSSASTKGPSVFPLAPCSRSTSESTAALGCLVKDYFPEPVTVSWNSGALTSGVHTFPAVLQSSGLYSLSSVVTVPSSNFGTQTYTCNVDHKPSNTKVDKTVERKCCVECPPCPAPPVAGPSVFLFPPKPKDTLMISRTPEVTCVVVDVSHEDPEVQFNWYVDGVEVHNAKTKPREEQFNSTFRVVSVLTVVHQDWLNGKEYKCKVSNKGLPAPIEKTISKTKGQPREPQVYTLPPSREEMTKNQVSLTCLVKGFYPSDIAVEWESNGQPENNYKTTPPMLDSDGSFFLYSKLTVDKSRWQQGNVFSCSVMHEALHNHYTQKSLSLSPGK
light: B7 light
notes: also called N4-wtIgG2; N4 clone, wtIgG2 isotype
B9: N4 with mtIgG2 isotype (antibody)
heavy: B8 heavy with C223S
light: B7 light
notes: also called N4-mtIgG2; N4 clone, mtIgG2 isotype

Molecular target: T1, human CD73 on CD73-expressing human …
Assay: flow cytometry on MDA-MB-231 cells, biotin-labeled antibody, streptavidin-FITC (FIG. 5B)
Procedure: (§1) The binding of anti-CD73 antibodies to cell surface CD73 were tested by incubating the MDA-MB-231 cells with the serially diluted biotin-labeled anti-CD73 antibodies in FACS buffer (PBS with 2% FBS) at 4° C. for 30 minutes. The cells were washed with FACS buffer and the binding was detected with streptavidin-FITC at 4° C. for 30 minutes. Flow cytometric analyses were performed using the Cytomics FC500 (Beckman Coulter Inc.).
(§2) The variable sequences of N1, N2 and N4 were cloned into human wild-type or C219S mutant IgG2 Fc backbone. Different IgG isotypes of N1 (FIG. 5A), N2 (FIG. 5B), N4 (FIG. 5C) were tested the binding to CD73-expressing human MDA-MB-231 cells by flow cytometry. Anti-CD73 ref-1 antibody and HLX01 (anti-CD20) were used as the positive and negative control respectively.

Does B1 bind?
Result: binds

Does B2 bind?
Result: binds

Does B3 bind?
Result: binds

Molecular target: T1, human CD73 on CD73-expressing human …
Assay: flow cytometry on MDA-MB-231 cells (FIG. 16B)
Procedure: Whole cell binding ability of anti-CD73 antibodies were tested by incubating the MDA-MB-231 or NCI-H292 cells with the serial-diluted antibodies in FACS buffer (PBS with 2% FBS) at 4° C. for 30 minutes. Cells were washed with FACS buffer and the binding was detected with FITC-labeled goat anti-human IgG (H+L) antibodies (or PE-labeled goat anti-human IgG Fcγ) at 4° C. for another 30 minutes. The binding of antibodies to cell surface was measured by the mean fluorescent intensity (MFI) of staining. Flow cytometric analyses were performed using the Cytomics FC500 or CytoFLEX flow cytometry (Beckman Coulter Inc.). FIGS. 2B and 2C show selected anti-CD73 antibodies binding to CD73-expressing human tumor cells MDA-MB-231 (human breast adenocarcinoma) cells (FIG. 2B), and NCI-H292 (human mucoepidermoid pulmonary carcinoma) cells (FIG. 2C).
FIGS. 16A-16C show CD73 binding ability of N1 and N4 top variants. Anti-CD73 antibodies were tested the binding to recombinant human CD73 proteins by ELISA (FIG. 16A) and CD73-expressing human tumor cells, MDA-MB-231 (FIG. 16B) and NCI-H292 (FIG. 16C), by flow cytometry. Anti-CD73 ref-1 and anti-CD73 ref-2 antibodies were used as the positive controls, while HLX01 (anti-CD20) was used as the negative control. […] The binding of N1#9-PH to CD73-expressing NCI-H292 cells is slightly better than that of N4#6-3-P and N4#6-4-P.

Does B4 bind?
Result: binds

Does B5 bind?
Result: binds

Does B6 bind?
Result: binds

Molecular target: T2, mouse CD73 on mouse mammary carcinoma …
Assay: flow cytometry on 4T1 cells, FITC anti-human IgG (FIG. 24A)
Procedure: Binding of anti-CD73 antibodies was assessed by incubating the 4T1 or LLC-MK2 cells (1E5 cells/test) with the serially diluted antibodies in FACS buffer (PBS with 2% FBS) at 4° C. for 30 minutes. The cells were washed with FACS buffer and the binding was detected with FITC-labeled goat anti-human IgG (H+L) antibodies at 4° C. for another 30 minutes. The binding of antibodies to cell surface was measured by the mean fluorescent intensity (MFI) of staining. Flow cytometric analyses were performed using the Cytomics FC500 or CytoFLEX flow cytometry (Beckman Coulter Inc.).
FIGS. 24A and 24B illustrate cross-binding of N1 and N4 top variants to mouse and monkey CD73-expressing cells. Anti-CD73 antibodies were tested for the binding to CD73-expressing mouse mammary carcinoma 4T1 cells (FIG. 24A) and monkey kidney epithelial LLC-MK2 cells (FIG. 24B) by flow cytometry. HLX01 was used as the negative control. […] N1 and N4 top variants cannot cross-bind to mouse CD73.

Does B4 bind?
Result: no binding

Does B5 bind?
Result: no binding

Does B6 bind?
Result: no binding

Molecular target: T1, human CD73 on CD73-expressing human …
Assay: flow cytometry on MDA-MB-231 cells, biotin-labeled antibody, streptavidin-FITC (FIG. 5C)
Procedure: as §1, §2

Does B7 bind?
Result: binds

Does B8 bind?
Result: binds

Does B9 bind?
Result: binds

— US20220162334A1 (SHANGHAI HENLIUS BIOTECH, published 2022)
